Consider 3 molecules from publication PMC11168923 (Nature, 2024).

One data set has as its target T1, FLVCR2 (Homo sapiens, UniProt Q9UPI3).
T1 construct: full length; transport: pcDNA3.1 in HEK293 with CHKA or ETNK1; structures and fluorescence: C-terminal FLAG tag, Flp-In T-REx293, LMNG
T1 sequence (Q9UPI3 1-526): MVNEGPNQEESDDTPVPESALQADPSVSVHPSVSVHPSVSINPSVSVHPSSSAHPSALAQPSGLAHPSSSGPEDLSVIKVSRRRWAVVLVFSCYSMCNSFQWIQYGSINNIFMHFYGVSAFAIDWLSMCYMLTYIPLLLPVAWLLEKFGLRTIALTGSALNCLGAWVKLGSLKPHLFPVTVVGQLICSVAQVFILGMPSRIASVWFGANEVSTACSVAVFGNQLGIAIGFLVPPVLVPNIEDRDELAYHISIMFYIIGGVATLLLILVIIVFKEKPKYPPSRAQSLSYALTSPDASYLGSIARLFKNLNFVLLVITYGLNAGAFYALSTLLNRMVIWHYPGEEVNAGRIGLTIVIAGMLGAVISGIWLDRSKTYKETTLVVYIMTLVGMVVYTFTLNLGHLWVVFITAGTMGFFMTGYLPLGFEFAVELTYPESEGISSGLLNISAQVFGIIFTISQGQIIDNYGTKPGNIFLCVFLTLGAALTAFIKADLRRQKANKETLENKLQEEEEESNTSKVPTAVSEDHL
Briefly: intrinsic tryptophan fluorescence shift (F350/F330). Type of data set: binding. The conditions noted are these: 0.5 µM protein; LMNG; pH 7.4; room temperature.

For another data set, the target named is T2, FLVCR1 (FLVCR1a) (Homo sapiens, UniProt Q9Y5Y0).
T2 construct: full length; transport: pcDNA3.1 in HEK293 with CHKA or ETNK1; structures and fluorescence: C-terminal FLAG tag, Flp-In T-REx293, LMNG
T2 sequence (Q9Y5Y0 1-555): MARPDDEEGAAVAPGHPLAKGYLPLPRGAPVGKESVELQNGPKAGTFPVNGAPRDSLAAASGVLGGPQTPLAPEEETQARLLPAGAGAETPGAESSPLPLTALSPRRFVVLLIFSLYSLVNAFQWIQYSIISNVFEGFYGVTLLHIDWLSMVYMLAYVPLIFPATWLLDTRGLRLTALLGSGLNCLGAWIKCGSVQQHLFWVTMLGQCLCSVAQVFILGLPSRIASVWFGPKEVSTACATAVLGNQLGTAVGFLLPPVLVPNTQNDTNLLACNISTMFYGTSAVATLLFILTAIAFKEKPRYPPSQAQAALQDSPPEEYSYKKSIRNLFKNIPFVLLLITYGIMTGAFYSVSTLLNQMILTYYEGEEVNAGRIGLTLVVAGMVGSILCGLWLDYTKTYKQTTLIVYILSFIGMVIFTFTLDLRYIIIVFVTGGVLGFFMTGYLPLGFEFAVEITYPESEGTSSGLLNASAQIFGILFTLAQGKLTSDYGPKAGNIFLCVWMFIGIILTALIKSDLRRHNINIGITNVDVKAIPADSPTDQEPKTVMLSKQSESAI
The description is as above. The conditions noted are these: 0.5 µM protein; LMNG; pH 7.4; room temperature. Type of data set: binding.

Substrate in data set [1]: C[N+](C)(C)CCO
Briefly: radioligand uptake dose curve in HEK293 cells. In kind it is cell-based, Homo sapiens. The conditions noted are these: CHKA co-expressed, DMEM, 37 °C, 1 h, labelled compound.

Substrate in data set [2]: NCCO
Description: radioligand uptake dose curve in HEK293 cells. The conditions noted are these: ETNK1 co-expressed, DMEM, 37 °C, 1 h, labelled compound. In kind it is cell-based, Homo sapiens.

As to `C[N+](C)(C)CCO` [choline], the “shift of F350/F330” value is “Shifts of tryptophan fluorescence of FLVCR1 and FLVCR2 in the presence of choline or betaine” on FLVCR2; “Shifts of tryptophan fluorescence of FLVCR1 and FLVCR2 in the presence of choline or betaine” on FLVCR1 (FLVCR1a).

B1: FLVCR2 (Homo sapiens) (protein)
chain: MVNEGPNQEESDDTPVPESALQADPSVSVHPSVSVHPSVSINPSVSVHPSSSAHPSALAQPSGLAHPSSSGPEDLSVIKVSRRRWAVVLVFSCYSMCNSFQWIQYGSINNIFMHFYGVSAFAIDWLSMCYMLTYIPLLLPVAWLLEKFGLRTIALTGSALNCLGAWVKLGSLKPHLFPVTVVGQLICSVAQVFILGMPSRIASVWFGANEVSTACSVAVFGNQLGIAIGFLVPPVLVPNIEDRDELAYHISIMFYIIGGVATLLLILVIIVFKEKPKYPPSRAQSLSYALTSPDASYLGSIARLFKNLNFVLLVITYGLNAGAFYALSTLLNRMVIWHYPGEEVNAGRIGLTIVIAGMLGAVISGIWLDRSKTYKETTLVVYIMTLVGMVVYTFTLNLGHLWVVFITAGTMGFFMTGYLPLGFEFAVELTYPESEGISSGLLNISAQVFGIIFTISQGQIIDNYGTKPGNIFLCVFLTLGAALTAFIKADLRRQKANKETLENKLQEEEEESNTSKVPTAVSEDHL
notes: full length; transport: pcDNA3.1 in HEK293 with CHKA or ETNK1; structures and fluorescence: C-terminal FLAG tag, Flp-In T-REx293, LMNG
Usually Km stands for the substrate concentration at which the rate is half of its maximum. With B1, the Km was 64.0 ± 21.0 µM in data set [1] and 41.5 ± 32.0 µM in data set [2].

B2: FLVCR1 (FLVCR1a) (Homo sapiens) (protein)
chain: MARPDDEEGAAVAPGHPLAKGYLPLPRGAPVGKESVELQNGPKAGTFPVNGAPRDSLAAASGVLGGPQTPLAPEEETQARLLPAGAGAETPGAESSPLPLTALSPRRFVVLLIFSLYSLVNAFQWIQYSIISNVFEGFYGVTLLHIDWLSMVYMLAYVPLIFPATWLLDTRGLRLTALLGSGLNCLGAWIKCGSVQQHLFWVTMLGQCLCSVAQVFILGLPSRIASVWFGPKEVSTACATAVLGNQLGTAVGFLLPPVLVPNTQNDTNLLACNISTMFYGTSAVATLLFILTAIAFKEKPRYPPSQAQAALQDSPPEEYSYKKSIRNLFKNIPFVLLLITYGIMTGAFYSVSTLLNQMILTYYEGEEVNAGRIGLTLVVAGMVGSILCGLWLDYTKTYKQTTLIVYILSFIGMVIFTFTLDLRYIIIVFVTGGVLGFFMTGYLPLGFEFAVEITYPESEGTSSGLLNASAQIFGILFTLAQGKLTSDYGPKAGNIFLCVWMFIGIILTALIKSDLRRHNINIGITNVDVKAIPADSPTDQEPKTVMLSKQSESAI
notes: as for B1
Consider B2, for which the Km is 47.4 ± 9.8 µM in data set [1] and 8 ± 1.5 µM in data set [2].
